Results taken from US20060110789A1, “Methods to mediate polyketide synthase module effectiveness” (priority 2002, published 2006).
Values joined by “and” are separate entries in the source; they are usually repeats but may differ in a detail not shown here. Equal values may be shown once.

How the values were obtained:
[1] = target: M3+TE or (5)M3+TE (DEBS module 3 fused to thioesterase); conditions: with M3+TE, cited from earlier work
[2] = test system: cysteamine thioester of 2S,3R-2-methyl-3-hydroxypentanoic acid (diketide); assay: Cell-free synthesis of triketides from diketide thioester by single module constructs; format: biochemical; conditions: 0.5-10 mM diketide thioester, 2.5 mM 14C-methylmalonyl CoA, 100 pmoles protein, 30 minutes, TLC
Description: (§1) A cell-free system, tested for the ability to convert the cysteamine thioester of 2S,3R-2-methyl-3-hydroxypentanoic acid (compound 2 in FIG. 2), consisted of 0.5-10 mM concentration of the thioester, 2.5 mM ^14C-labeled methylmalonyl CoA and 100 pmoles of purified protein prepared in Example 1 in a 100 μl reaction. In some cases, 1 mM of NADPH was added; this was done in assay mixtures containing (M2+TE), (M5+TE) and (M6+TE) proteins. The protein was, in each case, a single module of the DEBS PKS fused to the thioesterase (TE) termination region of module 6.
The reaction mixtures were quenched and extracted by ethyl acetate and separated by thin-layer chromatography (TLC) to discern the formation of the triketide ketolactone 3 and triketide lactone 4 (both shown in FIG. 2) after 30 minutes.
The constructs for (M2+TE) and (M6+TE) were modified by deleting the sequences encoding the amino acids upstream of the KS catalytic domain and substituting the first 39 amino acids from (M5+TE) containing the N-terminal portion of the interpolypeptide linker (N-ERL). The relevant constructs were prepared by replacing the BsaBI-EcoRI fragment in pRSG46 by the corresponding fragment from pCK4 to obtain N-ERL-M2+TE), in plasmid pRSG64, or from pJRJ10 to obtain (N-ERL-M6+TE) in plasmid pRSG54. These constructs yield modules which contain the upstream 39 amino acids from module 5.

diketide thioester = assay: Kinetic constants kcat and KM of single module constructs converting diketide to triketide; format: biochemical
Description: as §1
The various constructs which are successful in converting diketide to triketide were then evaluated for the kinetic constants kcat and KM. […] This is evidently due to the absence of beta-carbonyl modifying enzymes in module 3 as verified by the fact that removal of NADPH, (which is required for the activity of such modules) from the reaction mixture of (N-ERL-M6+TE) also results in a lowering of the kcat.

M2 and M3+TE = target: T1, M2 and M3+TE (Saccharopolyspora erythraea, UniProt Q03131); assay: Inhibition of tetraketide production by synthetic peptide, M2-M3 linker pair; format: biochemical; conditions: M2 and M3+TE both 1.0 μM, peptide 1 to 100 μM
T1 construct: Plasmid pBP19 contains module 2 of DEBS (M2) and is a derivative of pRSG64; made in house; host or cells: E. coli BL21(DE3) with B. subtilis sfp; pET-21c
Description: (§2) Inhibition of Tetraketide Production. The ability of the synthetic peptide to inhibit the transfer reaction, and thus the production of tetraketide, was tested under the same reaction conditions described for the two module coincubations. The concentrations of M2 and M3+TE were both 1.0 μM, and the concentrations of M2(4) and (5)M3+TE were 0.5 and 1.0 μM, respectively. The only difference was the addition of the peptide at concentrations ranging from 1 to 100 μM to the assay containing M2 and M3+TE [or alternatively M2(4) and (5)M3+TE]. For greater accuracy, each inhibition assay was performed side by side with a control lacking inhibitor. The effect of the inhibitor was thus determined by dividing the inhibited rate by the control rate.

[3] = test system: individually assayed modules, including M3+TE; assay: Effect of synthetic peptide on individually assayed modules; format: biochemical
Description: In Vitro Polyketide Production Assays of individual modules contained 1.0 μM protein, 1-10 mM N-acetylcysteamine thioester of the “natural” (2S,3R)-2-methyl-3-hydroxypentanoic acid diketide (NDK) (1), 4 mM NADPH, 440 mM sodium phosphate, 1 mM EDTA, 2.5 mM dithiothreitol (DTT), and 20% w/v glycerol, pH 7.2, in 80 μL. Reactions with M2 or M2(4) included 0.3 mM ^14C-methylmalonyl-CoA (specific activity adjusted to 10.4 mCi/mmol), and those with M3+TE or (5)M3+TE included 0.5 mM ^14C-methylmalonyl-CoA (specific activity reduced to 1.1 mCi/mmol). [M2(4) refers to a derivative of M2 in which the C-terminal linker has been replaced with its counterpart from module 4, whereas (5)M3 refers to a derivative of M3 in which the N-terminal linker has been replaced with its counterpart from module 5 (see FIG. 4).] Both concentrations of methylmalonyl-CoA were saturating, but different concentrations were needed due to the disparate rates of turnover between the modules with and without the thioesterase. The reaction mixtures were preincubated to 30° C. and started with the addition of the methylmalonyl-CoA. […] Product formation was quantified by comparison with standards of the labeled methylmalonyl-CoA. […]
Inhibition of Tetraketide Production. […] The effect of the inhibitor was thus determined by dividing the inhibited rate by the control rate.

M2(4) and (5)M3+TE = target: T2, M2(4) and (5)M3+TE (Saccharopolyspora erythraea, UniProt Q03131+Q03133, A1559G/A1612M/A1613S/A1621R/A1638S/A1707S/A1714P/A1717D/A1741R/A1766S/A1884G/A1933P/A1935T/A1951R/A1969R/A1973H/A1979Q/A2007V/A2008V/A2011V/A2018D/A2064V/A2138S/D1597P/D1620G/DEL1744-1744/DEL1923-1924/DEL1955-1967/E1628D/E1873D/E1883D/E1925V/E1947G/E1993A/E2004D/F1591L/G1618A/G1705A/G1739A/G1878E/G1927Q/G1930R/G1977A/G1990A/G1997H/G2038E/G2099R/H1599E/H1992T/I1756V/INS1626G/INS1975[…]/K1779R/K2139R/L1590A/L1610V/L1858V/L1941V/L1981F/L1987V/L1995A/L2136R/L2141V/L2144V/N1593S/N1855E/N1936G/P1725G/P1740R/P1870G/P1887E/P1889S/P1982E/Q1619T/Q1732V/Q1746R/Q1994E/Q1998R/Q2070P/R1983E/R1996V/S1600T/S1627V/S1636T/S1637A/S1670T/S1886R/S1937V/S1972D/S2041P/S2089A/S2104V/T1762S/T1948A/T1968G/T1976R/T2012V/T2015S/V1583A/V1601L/V1622P/V1623R/V1640A/V1644I/V1655L/V1708P/V1728S/V1730F/V1851L/V1879I/V1929R/V1931M/V2006A/V2021S/V2103A/V2124A/V2131M/Y1614H); assay: Inhibition of tetraketide production by synthetic peptide, M4-M5 linker pair; format: biochemical; conditions: M2(4) 0.5 μM and (5)M3+TE 1.0 μM, peptide concentrations up to 100 μM
T2 construct: Plasmid pST179 encodes a derivative of M2 containing the C-terminal linker of DEBS module 4 (M4); made in house; host or cells: E. coli BL21(DE3) with B. subtilis sfp; pET-21c
Description: as §2

[4] = test system: M3+TE or (5)M3+TE (DEBS module 3 fused to thioesterase); assay: Coincubation of donor module 2 proteins with module 3+TE: tetraketide lactone 2 formation and KD; format: biochemical; conditions: acceptor (5)M3+TE, matched M4-M5 linker pair, saturation curve
Description: Assays of M2 and M3+TE contained 10 μM M2 and […] M3+TE, 7 mM NDK, 0.5 mM ^14C-methylmalonyl-CoA (specific activity reduced to 3.4 mCi/mmol), 4 mM NADPH, 440 mM sodium phosphate, 1 mM EDTA, 2.5 mM DTT, and 20% w/v glycerol, pH 7.2, in 70 μL. Assays of M2(4) and (5)M3+TE were identical, except they contained 0.5 μM M2(4), 0.5-5 μM (5)M3+TE, and 0.4 mM ^14C-methylmalonyl-CoA (specific activity reduced to 6.2 mCi/mmol). The concentration of M2(4) was limiting in order to facilitate its saturation with (5)M3+TE. The reactions were prewarmed at 30° C. and initiated by the addition of the methylmalonyl-CoA. As described above, 20 μL aliquots were removed at various time points and processed. […]
For tetraketide formation, the rate of production of tetaketide was recorded for varying concentrations of M3+TE [or (5)M3+TE] at a fixed concentration of M2 [or M2(4)] and saturating concentrations of substrates. By fitting the rate dependence of tetraketide to a saturation curve, the maximal velocity (vmax) of tetraketide production was determined, and was assumed to represent the case where every M2 homodimer was productively associated with an M3+TE homodimer. Thus, the affinity of this protein-protein interaction could be calculated from the rate v=kcat[M2−M3] […]

[5] = test system: N-acetylcysteamine thioester of (2S,3R)-2-methyl-3-hydroxypentanoic acid diketide (NDK); assay: In vitro polyketide production assays of individual modules with NDK (kinetic analysis); format: biochemical; conditions: NDK 1-10 mM, 1.0 μM protein, 30° C; M2 and M2(4) only approximate (triketide lactone 3)
Description: In Vitro Polyketide Production Assays of individual modules contained 1.0 μM protein, 1-10 mM N-acetylcysteamine thioester of the “natural” (2S,3R)-2-methyl-3-hydroxypentanoic acid diketide (NDK) (1), 4 mM NADPH, 440 mM sodium phosphate, 1 mM EDTA, 2.5 mM dithiothreitol (DTT), and 20% w/v glycerol, pH 7.2, in 80 μL. Reactions with M2 or M2(4) included 0.3 mM ^14C-methylmalonyl-CoA (specific activity adjusted to 10.4 mCi/mmol), and those with M3+TE or (5)M3+TE included 0.5 mM ^14C-methylmalonyl-CoA (specific activity reduced to 1.1 mCi/mmol). [M2(4) refers to a derivative of M2 in which the C-terminal linker has been replaced with its counterpart from module 4, whereas (5)M3 refers to a derivative of M3 in which the N-terminal linker has been replaced with its counterpart from module 5 (see FIG. 4).] […] Product formation was quantified by comparison with standards of the labeled methylmalonyl-CoA. […]
Kinetic Analysis. For individual modules, the steady-state turnover number was determined from the time course of triketide formation, normalized to the concentration of protein. The dependence of the rate on substrate concentration was measured by varying the concentration of NDK while maintaining saturating levels of NADPH and methylmalonyl-CoA.

[6] = diketide to triketide, cell-free
[7] = listed as N-terminal linker of module 3
[8] = listed as synthetic peptide mimic of the N-terminal linker of M3

DEBS1: first protein of 6-deoxyerythronolide B synthase: loading module and extender modules 1 and 2
Kd ([1]; Gokhale et al. 1999, read-out: KD (previously reported value)): 2600 nM
rate of formation of the same tetraketide (earlier measurement) ([1]; Pieper et al. 1997): 0.23 min⁻¹

ERL−M2+TE: module 2+TE with the first 39 amino acids from (M5+TE), N-terminal interpolypeptide linker (pRSG64)
Triketide Formed [2]: Yes
Km (diketide thioester; [6]): 4.6 ± 0.4 mM
kcat × 100 (diketide thioester; [6]): 8 ± 0.6 min^−1

ERL−M6+TE: module 6+TE with the first 39 amino acids from (M5+TE), N-terminal interpolypeptide linker (pRSG54)
Triketide Formed [2]: Yes
Km (diketide thioester; [6]): 4.3 ± 0.4 mM
kcat × 100 (diketide thioester; [6]): 9.5 ± 0.6 min^−1
Km (diketide thioester; −NADPH): 4.1 ± 0.4 mM
kcat × 100 (diketide thioester; −NADPH): 4.5 ± 0.7 min^−1

H2N-MTDSEKVAEYLRRATLDLRAARQRIRELESD-amide (H-MTDSEKVAEYLRRATLDLRAARQRIRELESD-NH2) [M3 N-term]
inhibition of tetraketide production (M2 and M3+TE; [7]): inhibit the formation of 2 in the presence of M2 and M3+TE in a concentration-dependent manner
inhibition of tetraketide production (M2 and M3+TE; [8]): lowered the overall rate of tetraketide production in a dose-dependent fashion
inhibitory effect upon individually assayed modules [3]: no inhibitory effect
inhibition of tetraketide production (M2(4) and (5)M3+TE; [7]): No inhibitory effect
inhibition of tetraketide production (M2(4) and (5)M3+TE; [8]): no such effect

M2(4): derivative of M2 containing the C-terminal linker of DEBS module 4 (pST179)
kcat of tetraketide lactone 2 synthesis [4]: 0.0123 ± 0.001 s⁻¹ and 0.0123 s⁻¹
kcat [5]: ~0.0005 s⁻¹

M5+TE: DEBS module 5 with its natural N-terminal linker fused to thioesterase (pRSG46)
Triketide Formed [2]: Yes
Km (diketide thioester; [6]): 4.7 ± 0.4 mM
kcat × 100 (diketide thioester; [6]): 7.5 ± 0.7 min^−1
